According to US20250313631A1 (HUMMINGBIRD BIOSCIENCE PTE, published 2025):

Legend:
VISTA-Fc = biological target: T1, VISTA-Fc (UniProt Q9H7M9 33-194); experiment: competition ELISA: VISTA-Fc coated, VSIG3-His 0.3 ug/ml as the blocked ligand, anti-His-HRP detection
T1 construct: also called VISTA-Ig; not shown: Fc/Ig part not described

[1] = biological target: T2, recombinant cynomolgus macaque VISTA (His-tagged) (cynomolgus macaque, UniProt A0A7N9IB00 33-194); experiment: BLI (Octet QK384), His-tagged VISTA on anti-Penta-HIS tips, antibody as analyte
T2 construct: also called cyno VISTA; cynomolgus monkey VISTA

[2] = biological target: T3, recombinant mouse VISTA (His-tagged) (mouse, UniProt Q9D659 33-191); experiment: as above
T3 construct: also called murine VISTA; mVISTA
T3 sequence (looked up): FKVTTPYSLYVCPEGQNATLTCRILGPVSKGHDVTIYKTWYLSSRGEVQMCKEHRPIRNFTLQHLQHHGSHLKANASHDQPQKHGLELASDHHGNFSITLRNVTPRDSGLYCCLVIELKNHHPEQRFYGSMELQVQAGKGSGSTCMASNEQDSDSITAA

[3] = biological target: T4, recombinant human VISTA (His-tagged) (human, UniProt Q9H7M9 33-194); experiment: ELISA, plate coated with human VISTA
T4 construct: bought soluble protein (Sino Biological); also called hVISTA; human VISTA polypeptide

[4] = biological target: T4, recombinant human VISTA (His-tagged); experiment: antigen-binding ELISA; HMBD-002 in F7, day 20 at 40°C
[5] = biological target: T4, recombinant human VISTA (His-tagged); experiment: antigen-binding ELISA; HMBD-002 10 mg/mL in F9, day 0
human PD-L1 = biological target: T5, human PD-L1 (human, UniProt Q9NZQ7 19-239); experiment: ELISA, plate coated with human B7H1 (PDL1), antibody titrated
T5 construct: captured through a His tag in the BLI experiments; also called hPD-L1; B7H1/PDL-1

human B7H4 = biological target: T6, human B7H4 (human, UniProt Q7Z7D3 25-258, limits assumed); experiment: ELISA, plate coated with human B7H4, antibody titrated
T6 construct: also called VTCN1
T6 sequence (looked up): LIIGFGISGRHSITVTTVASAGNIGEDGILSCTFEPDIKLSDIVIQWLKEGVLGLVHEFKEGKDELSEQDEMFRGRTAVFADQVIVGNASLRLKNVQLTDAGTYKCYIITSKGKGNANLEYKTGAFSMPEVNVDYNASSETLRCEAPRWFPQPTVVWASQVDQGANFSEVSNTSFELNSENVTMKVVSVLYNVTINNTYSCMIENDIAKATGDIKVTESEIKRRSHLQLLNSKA

[6] = biological target: T4, recombinant human VISTA (His-tagged); experiment: antigen-binding ELISA; HMBD-002 in F8, day 30 at 40°C
[7] = biological target: T4, recombinant human VISTA (His-tagged); experiment: antigen-binding ELISA; HMBD-002 10 mg/mL in F3, day 0
[8] = biological target: T3, recombinant mouse VISTA (His-tagged); experiment: SPR (Biacore), VISTA-HIS captured, antibody as analyte, 1:1 model; SPR (Biacore), mouse VISTA
[9] = biological target: T4, recombinant human VISTA (His-tagged); experiment: antigen-binding ELISA; HMBD-002 in F5, day 10 at 40°C
[10] = biological target: T4, recombinant human VISTA (His-tagged); experiment: antigen-binding ELISA; HMBD-002 in F7, day 30 at 40°C
[11] = biological target: T3, recombinant mouse VISTA (His-tagged); experiment: ELISA, VISTA-HIS protein coated; ELISA, mouse VISTA-HIS
[12] = biological target: T4, recombinant human VISTA (His-tagged); experiment: ELISA, plate coated with human B7H5 (VISTA), antibody titrated
[13] = biological target: T4, recombinant human VISTA (His-tagged); experiment: antigen-binding ELISA; HMBD-002 in F3, day 30 at 40°C
[14] = biological target: T4, recombinant human VISTA (His-tagged); experiment: antigen-binding ELISA; HMBD-002 10 mg/mL in F2, day 0
human B7H6 = biological target: T7, human B7H6 (human, UniProt Q68D85 25-262); experiment: ELISA, plate coated with human B7H6, antibody titrated
T7 construct: also called NCR3LG1
T7 sequence (looked up): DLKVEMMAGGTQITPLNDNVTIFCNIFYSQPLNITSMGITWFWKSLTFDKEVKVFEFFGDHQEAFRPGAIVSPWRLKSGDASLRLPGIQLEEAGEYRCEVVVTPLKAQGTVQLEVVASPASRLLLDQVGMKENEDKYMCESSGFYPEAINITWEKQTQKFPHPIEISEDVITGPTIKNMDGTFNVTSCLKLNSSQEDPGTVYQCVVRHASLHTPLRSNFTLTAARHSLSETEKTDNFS

[15] = biological target: T8, recombinant rat VISTA (His-tagged) (rat, UniProt A0ABK0L5H3 33-192); experiment: SPR (Biacore), VISTA-HIS captured, antibody as analyte, 1:1 model; SPR (Biacore), rat VISTA
T8 sequence: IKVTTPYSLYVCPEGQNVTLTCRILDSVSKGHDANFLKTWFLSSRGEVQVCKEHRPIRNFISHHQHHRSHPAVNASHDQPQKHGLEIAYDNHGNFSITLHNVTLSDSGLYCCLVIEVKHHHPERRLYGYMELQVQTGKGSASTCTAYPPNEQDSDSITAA

[16] = biological target: T4, recombinant human VISTA (His-tagged); experiment: antigen-binding ELISA; HMBD-002 in F9, day 10 at 40°C

B1: anti-VISTA clone 4M2-C12 IgG1 (antibody)
heavy: not shown
light: DIVITQTPAILSTSPGEKVTMTCRASSSVGYIHWYQQKPGSSPKPWIYATSNLASGVPARFSGSGSGTSNSLTITRVEAEDAATYYCQQWSSYPPITFGGGTKLEVKRTVAAPSVFIFPPSDEQLKSGTASVVCLLNNFYPREAKVQWKVDNALQSGNSQESVTEQDSKDSTYSLSSTLTLSKADYEKHKVYACEVTHQGLSSPVTKSFNRGEC
notes: mouse variable regions on human IgG1/kappa constant regions; also called V4; V4pr
IC50 (read off the curve) (VISTA-Fc): ~4000 pM
Kd [1]: < 1 pM
Kd [2]: 113000 pM
EC50 (read off the curve) [3]: ~10 pM

B2: V4-C26 hIgG4 (antibody)
heavy: not shown
light: EIVLTQSPATLSLSPGERATLSCRASSSVGYIHWYQQKPGQAPRPIIYTTSNRATGIPARFSGSGSGTDNTLTISSLEPEDSAVYYCQQWSSYPPITFGGGTKLEVKRTVAAPSVFIFPPSDEQLKSGTASVVCLLNNFYPREAKVQWKVDNALQSGNSQESVTEQDSKDSTYSLSSTLTLSKADYEKHKVYACEVTHQGLSSPVTKSFNRGEC
notes: human IgG4 (S228P)/kappa format; also called HMBD-002; HMBD-002-V4C26
EC50 [4]: 20.6 pM
EC50 [5]: 31.5 pM
binding result (human PD-L1): no binding (tested: about 3e-8 M)
binding result (human B7H4): no binding (tested: about 3e-8 M)
EC50 [6]: 22.7 pM
EC50 [7]: 30.8 pM
Kd [8]: 549 pM
EC50 [9]: 34.1 pM
EC50 [10]: 21.7 pM
EC50 [11]: 3.55 pM
EC50 (read off the curve) [12]: ~10 pM
EC50 [13]: 22.7 pM
EC50 [14]: 33.9 pM
binding result (human B7H6): no binding (tested: about 3e-8 M)
Kd [15]: 382 pM
EC50 [16]: 30.5 pM
